US20250051435A1 (INVETX, published 2025)
Numbering of substitutions follows the chain as printed.

T1: feline IL-5 (Kingfisher Biotech; RP1152F) (feline, UniProt O77515 20-134)
T1 construct: Bought recombinant protein; also called fIL-5; fIL5
T1 sequence (looked up): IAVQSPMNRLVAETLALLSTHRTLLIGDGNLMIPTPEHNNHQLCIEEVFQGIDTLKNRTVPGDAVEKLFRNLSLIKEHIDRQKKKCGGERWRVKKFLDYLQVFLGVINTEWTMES

B1: LxH3-D3 Fab (affinity matured MtxB) (Fab, V domains shown)
VH: DVQLVESGGDLVKPGGSLRLTCVGSGFTFSNYAMSWVRQAPGEGLQWVATIGSGGHYTYHPDSVKGRFTISRDNAKNTLYLQMNSLQTEDTASYYCTRETDGYGPILDWGQGTLVTVSS
VL: DIVMTQTPLSLSVTPGEPASISCRASQSISDYLYWYLQKPGQSPRLLFNVLSQRSSGVPDRFSGSGSGTDFTLRISRVEADDVGVYYCQQGLVFPYTFGPGTKLEIK
notes: Fab from the Stage B library on MtxB; the entries named are the parent, the changed regions are told under detail
B2: LxH3-D9 Fab (affinity matured MtxB) (Fab, V domains shown)
VH: B1 VH
VL: DIVMTQTPLSLSVTPGEPASISCRASQSISDYLYWYLQKPGQSPRLIINYGSVLLSGVPDRFSGSGSGTDFTLRISRVEADDVGVYYCQQGLLFPYTFGPGTKLEIKR
notes: as for B1
B3: LxH3-F5 Fab (affinity matured MtxB) (Fab, V domains shown)
VH: B1 VH with I106L, L107D, D108L
VL: B2 VL with Y50P, G51M, V53G, L54Q
notes: as for B1
B4: LxH3-F3 Fab (affinity matured MtxB) (Fab, V domains shown)
VH: B1 VH with I106L, L107D, D108L
VL: B1 VL with V50S, L51V, Q53P, R54T, S55R, L92V
notes: as for B1
B5: LxH3-D1 Fab (affinity matured MtxB) (Fab, V domains shown)
VH: B1 VH
VL: B2 VL with L46R, I47L, N49Y, Y50F, L54R, L55S, L93Q
notes: as for B1
B6: LxH3-E8 Fab (affinity matured MtxB) (Fab, V domains shown)
VH: B1 VH
VL: B2 VL with Y50Q, G51A, V53S, L54K, L92P
notes: as for B1
B7: LxH3-G2 Fab (affinity matured MtxB) (Fab, V domains shown)
VH: B1 VH with I106L, L107D, D108L
VL: B2 VL with I47V, Y50W, V53Q, L54R, L55A, L92A, L93I
notes: as for B1
B8: LxH3-F12 Fab (affinity matured MtxB) (Fab, V domains shown)
VH: B1 VH with I106L, L107D, D108L
VL: B2 VL with I48F, Y50P, G51L, L54R, L55R, L92Y, L93V
notes: as for B1
B9: LxH3-F4 Fab (affinity matured MtxB) (Fab, V domains shown)
VH: B1 VH with I106M
VL: B2 VL with I47L, I48F, L55A, L92Y
notes: as for B1
B10: LxH3-B6 Fab (affinity matured MtxB) (Fab, V domains shown)
VH: B1 VH
VL: B2 VL with I48F, Y50P, G51L, L54R, L55R, L92M, L93V
notes: as for B1
B11: LxH3-E2 Fab (affinity matured MtxB) (Fab, V domains shown)
VH: B1 VH
VL: B2 VL with L46R, I48F, Y50H, G51L, V53P, L54S, L55S, L92S, L93V
notes: as for B1
B12: LxH3-G4 Fab (affinity matured MtxB) (Fab, V domains shown)
VH: B1 VH with I106M, L107D, D108L
VL: B2 VL with L46R, I47L, N49Y, Y50F, V53L, L55S
notes: as for B1
B13: LxH3-B10 Fab (affinity matured MtxB) (Fab, V domains shown)
VH: B1 VH
VL: B2 VL with L46R, I47L, N49F, Y50T, V53Q, L54R, L55A, L92V, L93R
notes: as for B1
B14: LxH3-A9 Fab (affinity matured MtxB) (Fab, V domains shown)
VH: B1 VH with I106L, L107D, D108L
VL: B2 VL with L46R, N49F, Y50T, V53Q, L54R, L55N, L92M, L93V
notes: as for B1
B15: LxH3-D6 Fab (affinity matured MtxB) (Fab, V domains shown)
VH: B1 VH
VL: B2 VL with L46R, I47V, N49Y, Y50T, V53Q, L54R, L55S, L93V
notes: as for B1
B16: LxH3-F11 Fab (affinity matured MtxB) (Fab, V domains shown)
VH: B1 VH
VL: DIVMTQTPLSLSVTPGEPASISCRASQSISDYLYWYLQKPGQSPRRVFFHSSYRQSGVPDRFSGSGSGTDFTLRISRVEADDVGVYYCQQGMLFPFTFGPGTKLEIKR
notes: as for B1

Biological target: T1, feline IL-5 (Kingfisher Biotech; …)
Assay: ELISA, Fab culture supernatant on plate-coated feline IL-5, anti-feline Fab'2-HRP detection
Description: Fragments containing the pre-selected CDR pools from these libraries were randomly paired by overlap PCR to create a new library incorporating mutations throughout all targeted CDRs. The phage propagated following round 4 of selection were used for PCR amplication of LCDR2, LCDR3 and HCDR3. The PCR-amplified fragment containing the light chain and the heavy chain were ligated into a phagemid vector and transformed into E. coli. The number of transformants was approximately 2E+10. Library plasmid DNA was purified using a midi-prep purification method. Ten pg of the library plasmid DNA was transformed into E. coli for growth and propagation of the Fab phage. After overnight phage production, phage was precipitated from the culture supernatant and resuspended in blocking buffer (1% BSA/PBS). The phage were treated at 58° C. for 10 minutes to remove unstable clones prior to the selections. The input phage was incubated for 30 minutes in a blocked ELISA plate coated with feline IL-5. The ELISA plate was washed with PBS, pH 7.4 followed by acid elution of the bound phage. The output phage was then used to infect E. coli for propagation for the next round of selection. For rounds 1, 2, 3 and 4, the ELISA plates were coated with 10 μg/ml, 8 μg/ml, 5 μg/ml and 1 μg/ml, respectively. The number of washes after each round were 3, 5, 10 and 10 for rounds 1, 2, 3 and 4, respectively. Ninety-three clones from the round 4 output were grown overnight for Fab production and tested for binding to feline IL-5 in an ELISA format. For this assay, supernatants from the overnight cultures were incubated in Immulon 4 HBX high-binding plate that was coated with 10 μg/ml feline IL-5 (Kingfisher Biotech; Cat #RP1152F) and blocked with 1% bovine serum albumin in phosphate buffered saline (PBS), pH 7.4. The controls added included the MtxB clone and clone 1H3-C6 which was the top affinity clone from the first stage A1 step. The Fab binding to the feline IL-5 was detected with anti-feline Fab′₂-HRP conjugate.
The results are shown in Table 8A which compares relative Fab binding affinity to feline IL-5 by Fabs disclosed herein. IL-5 binding was detected with anti-feline Fab′₂-HRP conjugate. Differences in CDR amino acids compared to the MtxB are underlined. The data in the last column are absorbance following addition of substrate to detect the HRP conjugate.

| Binder | fIL5 Fab (ELISA absorbance) [absorbance] |
| --- | --- |
| B1 | 1.28 |
| B2 | 1.13 |
| B3 | 1.04 |
| B4 | 1.16 |
| B5 | 1.01 |
| B6 | 0.748 |
| B7 | 0.653 |
| B8 | 0.513 |
| B9 | 0.738 |
| B10 | 0.972 |
| B11 | 0.809 |
| B12 | 0.545 |
| B13 | 0.702 |
| B14 | 0.722 |
| B15 | 0.708 |
| B16 | 0.782 |
